Measurements reported in the nanobody polyreactivity screen of Harvey et al. (2022).

Test: yeast display, Sf9 membrane polyspecificity reagent, FACS + sequencing; frameworks hold sequencing errors
How it was run: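 A synthetic nanobody library was expressed on Saccharomyces cerevisiae BJ5465 by galactose induction for 36–48 hours. The library was stained for 1 hour at 4 °C with 10% biotinylated, detergent-solubilized Sf9 membrane reagent and enriched with streptavidin microbeads before FACS. Low and high (top ~1%) gates were set on anti-HA fluorescence for expression and streptavidin fluorescence for reagent binding, and each polyreactivity label reflects the gate of origin.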

QVQLVESGGGLVQAGGSLRLSCAASGRTFALYAMGWYRQAPGKERELVATITFIGDSTYYADSVKGRFTISRDNAKNTVYLQMNCLKPVDTAVYYCNATYGPYYPGIVTYIWFDHWGQGSQVTVSS
polyreactivity (PSR sort gate): low polyreactivity

QVQLVESGGGLVQAGGSLRLSCAASGFTFARNTMGWYRQAPGKEREFVAVITNRGGSTYYADSVKGRFTISRDNAKNTVYLQMNSLKPEDTAVYYCAARKKHSGYGRGNYWGQGTQVTVSS
polyreactivity (PSR sort gate): high polyreactivity

QVQLVESGGGLVQAGGSLRLSCAASGRTFSTYAMGWYRQAPGKERELVAAITTSGGNTYYADSVKGRFTISRDNAKNTVYLQMNSLKPEDTAVYYCNAKQQPYGGTDYDYWGQGTQVTVSS
polyreactivity (PSR sort gate): low polyreactivity

QVQLVESGGGLVQAGGSLRVSCAASGSIFGYYAMGWSRQAPGKERELVAGINWSGGSTYADSVKGRFTISRDNAKNTVYLKMNSLKPEDTAVYYCYLRYRKYSSAKYDYWGQGTQVTVSS
polyreactivity (PSR sort gate): high polyreactivity

QVQLVESGGGLVQAGGSLRLSCAASGRTFQSYAMGWYRQAPGKERELVAAITITGGRTYYADSVKGRFTISRDNAKNTVYLQMNSLKPEDTAVYYCADYDYWGQGTQVTVSS
polyreactivity (PSR sort gate): low polyreactivity

QVQLVESGGGIVQAGGSLRLSCAASGFTFKKYAMGWYRQAPGKERELVAAISRSGGRTYYADSVKGRFTISRDNAKNTVFLQMNSLKPEDTAVYYCNADYYSAAYYYWGQGTQVTVSS
polyreactivity (PSR sort gate): high polyreactivity

QVQLVESGGGLVQAGGSLRLSCAASGGIFVANAMGWYRQAPGKERELVAAISRSGGSTYYADSVKGRFTISRDNAKNTVYLQMKSLKPEDTAVYYCAAKSRRQFTVGLTSDYRGQGTQVTVSS
polyreactivity (PSR sort gate): high polyreactivity

QDQLVESGGGLVQAGGSLRLSCAASGGTFSLYAKGWYRQAPGKEREFVAAISWRGTSTYYADSVKGRFTISRDNAKNTVYLQMNSLKPEDTAVYYCAARAWHEYGSWVQGTQVTVSS
polyreactivity (PSR sort gate): high polyreactivity

QVQLVESGGGLVQAGGSLRLRCAASGFIFGPNAMGWYRQAPGKEREFDAAINWSGGTTYYADSVKGRFTISRDNAKNTVYLQMNSLKPEDTAVYYCAASLYSDVAAVATYGYYWGQGTQVTVSS
polyreactivity (PSR sort gate): low polyreactivity

QVQLVESGGGLVQTGGSLRISCAASGSTFYYYAIGWYRQAAGKERELVAGISWGGGSTYYEDSVKGRFTISRDNAKNTVYLQMNSLKPEDTAVYYCNALNPKSYDYWGHGTQVTVSS
polyreactivity (PSR sort gate): low polyreactivity

QVQLVESGGGLVQAGRSLRLSCAASGITFYKNAMGWYRQAPGKERELVAAISSGGATTYADSVKGRFTISRDNAKNTVYLQMNSLKPEDSAVYYCAAVTRDYRNERRRQRYFYWGQGTQVTVSS
polyreactivity (PSR sort gate): high polyreactivity

QVQLVESGGGLVQAGGSLRLSCAASGSIFVTYDMGWYRQAPGKERELVAGISGSGSTYYADSVKGRFTISRDNAKNTVYLQMNSLKPEDTAGYYCAAVWSRFLISYSTGWWFEYWGQGTQVTVSS
polyreactivity (PSR sort gate): low polyreactivity

QVQLVESGGCLVQAGGSLRLSCAASGRIFPGYAMVWYRQAPGKERELVAAISASGGSTYYADSVKGRFTISRDNAKNSVYFQIISLKPEDTAVYYCNAVYRLIRFDYWGQGSQVTVSS
polyreactivity (PSR sort gate): high polyreactivity

QVQLVESGGGLVQAGGSLRLSCAASGSTFIVKAMGWYRHAPGKERELVAAITEDGDTTYYADSVKGRFTISRDNAKKTVYLQMNSLKPEDTAVYYCAAETYYLDDYWGQGTQVTVSS
polyreactivity (PSR sort gate): high polyreactivity

QVQLVESGGGLVQAGGSLRLSCAASGFIFAYYVMGWYRQAPGKERELVAAITSRGGRTYYADSVKGRFTISRDNAKNTVYLQMNSLKPEDTAVYYCAAYRQLVNLREDYWGQGTQVTVSS
polyreactivity (PSR sort gate): high polyreactivity

QVQLQESGCGLVQAGGSLRLSCAASGYISSWYPMGWYRQAPGKEREFVATIAPGATTYYADSVKGRFTISRDYSINTVYLQMNSLKPEDTAVYYCAAGPENNDFYSYWGQGTQVTVSS
polyreactivity (PSR sort gate): low polyreactivity

QVQLVESGGGLVQAGGSLRLSCAASGYTFNRNAMGWYIQAPGKERELVASITRRGGSTYYADSVKGRFTISRDNAKNTVYLQMNSLKPEDTAVYYCAVESIRTGDYWGQGTQVTVSS
polyreactivity (PSR sort gate): high polyreactivity

QVQLEVSGGGLVQAGGSIRLSCAASGSTFGGNAMGWYRQAPRKERELVAAIDSGGSTYADSVKGRFTISRDNAKNTVYLQMNSLKPEDTAVYYCADWFSAYYSLYRHRGYWGQGTQVTVSS
polyreactivity (PSR sort gate): low polyreactivity

QVQHVETGGGLVQAGGSLRLSCAASGFIFTRYVMGWSRQAPGKERELVAAISRIGASTYYADSVKGRFSISRDNAKNPVYLQMNSLKPEDTAVYYCNVVSGGYFEYEYCGQGTQVTVSS
polyreactivity (PSR sort gate): high polyreactivity

QVQLVESAGGLVQAGGSLRLSCAASGSTFTSYAMGWYRQAPGKERELVDAITRNGGTTYYADSVKGRFTISRDNAKNTVYLQMNSLKPEDTAVYYCNAPHYYYITSDRRFDYWGQGTQVTVSS
polyreactivity (PSR sort gate): low polyreactivity

QVQLVESGGGLVQAGGSLRLSCAASGSIFSGYAMGWYRQAPGKEREFVAAISSSGGRTYYADSVKGRFTISRDNAKNTVYLQMNSLKPEDTAVYYCNAVSSYGYDYWGQGTQVTVSS
polyreactivity (PSR sort gate): high polyreactivity

QVQLVESGGGLVQAGGILRLSCAASGRTLDYSAMGWYRQAPGKERELVASITSGGSTNYADSVKGRFTISRDTAKNTVYLQMNSLKPEDTEVYYCAADSAFYRDVKSNYWGQGTQVTVSS
polyreactivity (PSR sort gate): low polyreactivity

QDQLVESGGGLVQAGASLRLSCAASGITFNVYAMGWYRQAPGKEREFVAAISYNGGRTYYADSVKGRFTISRDNAKNTVYLQMNSLKPEDTAVYYCAAQWAWGPYDYWGQGTQVTVSS
polyreactivity (PSR sort gate): high polyreactivity

QVKLVDSGGGLVQAGGSLRLSCAASGFIFYSYDMGWYRQAPGKERELVATITSGDDTYYADSVKGRFTISRDNAKNTVYLQMNSQKPEDTAVGYWGQGTQVTVSS
polyreactivity (PSR sort gate): low polyreactivity

QVQLVESGGCLVQAGGSLRLSCAASGLTIAYYAMGWYRQAPGKERDLVAAITSSGTSTYYADSVKGRFTISRDNAKNTVYLQMNSLKPEDTAVYYCNKYPYFVYGDYGYWGQGTQVTVSS
polyreactivity (PSR sort gate): high polyreactivity

QVQLVESGGGLVQAGGSLRLSCAASGRILRSNAMGWYRQAPGKERELVAAITSSGGSTRYADSVKGRFTISRDNAKNTVYLQMNSLKPEDTAVYYCAARYRQGFQAGHGYWGQGTQVTVSS
polyreactivity (PSR sort gate): high polyreactivity

QVQLEESGVGLVQAGGSLRLSCAASGFIFSFYAMGWSRQAPGKERELVAVISKSGGSTYYADSVKGRFTISRDNAKNTVYLQMNSLKPEDTAVYFCAADSTVGRLLSFDYWGQGTQVTVSS
polyreactivity (PSR sort gate): low polyreactivity

QVQLVESGGGLVQAGGSLRCSWAASGFIFTPYAMGWYRQAPGTEREFVATITWSGGSTNYADSVKGRFTISRDNAKNTVYLPMNSLKPDDTAVYYCNADTWSPNDYWGQGTQVTVSS
polyreactivity (PSR sort gate): low polyreactivity

QVQLVESGGGLVQAGGSLRLSCAASGSIFGAYDMGWSRQAPGKERELVASITSGDSTNYADSVTGRFTISRDNAKNTVYLQMNSLKPEDTAVYYCAADLAVAVAADYDSWGQGTQVTVSS
polyreactivity (PSR sort gate): low polyreactivity

QVQLVESGGGLVQAGGSLRLSCAASGRTFKGYTMGWYRQAPGKERELVAAITRSGGGTYYADSVKGRFTISRDNAKNTVYLQMNSLKPEDTAVYYCAAYNGSRRQEFDYWGQGTQVTVSS
polyreactivity (PSR sort gate): high polyreactivity

QVQLVESGGGLVQAGGSLRLSCAASGFTSWYAMGWYRQAPGKERELVAAISSGGSTNYADSVKGRFTISRDNAKNTVYLQLNSLKPEDTAVYYCNAEGYETGVPYFGFYFWGQGTQVTVSS
polyreactivity (PSR sort gate): low polyreactivity

QVQLVESGGGLVQAGGSLRLSCAASGRTFGYYAMGWYRQAPGKEREFVAAISFRTTSTYYADSVKGRFTISRDNAKNTVYLQMNSLKPEDTAVYYCNADWYLLSTWYDYWGQGTQVTVSS
polyreactivity (PSR sort gate): high polyreactivity
